This is an account of results in the nanobody polyreactivity screen of Harvey et al. (2022).

The nature of the series: yeast display, Sf9 membrane polyspecificity reagent, FACS + sequencing; frameworks hold sequencing errors. In a few lines: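 Using colony PCR, genes from sorted yeast display clones were amplified, then sequenced on MiSeq at 2 × 250 and filtered by CDR length. The clones had been stained with 10% biotinylated, detergent-solubilized Sf9 membrane reagent for 1 hour at 4 °C and sorted by FACS into low and high (top ~1%) gates on anti-HA and streptavidin fluorescence. Polyreactivity labels come from the gate of origin.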
“QVQLVESGGGLVQAGGSLRLSCAASGSTFSSLIMGCYRQAPGKERELVAAISRSGGRTYYADSVKGRFTISRDNAKNTVYLQMNSLKPEDTAVYYCAADYVSVDRIRYGYWGQGTQVTVSS”: the “polyreactivity (PSR sort gate)” value is on record as “high polyreactivity”.

Regarding “QVQLVDSGGGLVQAGGSLRLTCAASGSIFNYYTMGWSRQAPGKERELVAAISSSGGSTYYADSVKGRFTISRDNAKNTVYLQMNSLKPVDTAVYFCNTYPPAHREYESWGQGTQLTVSS”, the “polyreactivity (PSR sort gate)” value is listed as “high polyreactivity”.

In the case of “QVQLVESGGGLVQAGGSLRLSCAASGSTFAYYDMGRYRPAPGKERELVAAITIDGRTSYADSVKGRFTISRDNAMNTVYLQMNSLKPEDTAVYYCNTEIRLSKYDYWGQGTQVTVSS”, the “polyreactivity (PSR sort gate)” value is “low polyreactivity”.

As for “QVQLVESGGGLVQAGGRLRLSCAASGLIFSVYVMGGYRQAPGKERELVAGITTGGSTKYADSVKGRFTISRDNAKNTVYLEMNSLKPEDTAVYYCAVGKYNYRGSWDYYWGQGTQVTVSS”, the “polyreactivity (PSR sort gate)” value is listed as “high polyreactivity”.

Regarding “QVQLVESGGGLVQAGGSLRLSCAASGRIFNYNALGWYRQAPGKESELVATITYIGTGTYYADSVKGRFTISRDNAKTTVYLQMNSLKPEDTAVYYCAASYRSRVWWRFDYWGQGTQVTVSS”, the “polyreactivity (PSR sort gate)” value is on record as “high polyreactivity”.

For “QVQLVESGGGLVQAGGSLRLSCAASGRIFPVYAMGWYRQAPGNERELVAAITSGVGSTYYADSVKGRFTISRDNAKNTVYLQMNSLKPEDTAVYYCAADSSYLTYWEYDYWGQGTQVTVSS”, the “polyreactivity (PSR sort gate)” value is “low polyreactivity”.

Regarding “QFQLVESGGGLVQAGGSLRLSCAASGRTFYDNTMGWYRQAPGKERELVAAITRNGGSTYYADSVKGRFTISRDNAKNTVYLQMNSLKPEDTAVYYCAAEGPSHRLNVRLVKGSDSWGQGTQVTVSS”, the “polyreactivity (PSR sort gate)” value is reported as “low polyreactivity”.

As for “QLQLVDSGGGLVQAGGSLRLSCAATGFTFYYYVMGWYRQAPGKETELVAAISSRGGSTYYADSVKGRFTISRDNAKNTVYLQMNSLKPEDTAVYYCAATYWPYRPGYYYWGQGTQVTVSS”, the “polyreactivity (PSR sort gate)” value is recorded as “high polyreactivity”.

Turning to “QVQLVESGGGLVQAGGSLRLSCAASGLTLSGYAMGWYRQAPGKERELVAAISSTGGSTYYADSVKGRFTISRDNAKNTVYLQMNSLKPEDTAVYYCAKGYSPTRVRLRYPRYDTYNHWGQGTQVTVSS”, the “polyreactivity (PSR sort gate)” value is given as “high polyreactivity”.

As to “QVQLVESGGGLVQAGGSLRLSCAASGSTFWLNAMGWYRQAPGKEREFVAAITWSSGSTYYADSVKGRFTISRDNAKNTVYLQMNSLKPEDTAVYYCAADGRYVRIRGDYWGQGTQVTVSS”, the “polyreactivity (PSR sort gate)” value is given as “low polyreactivity”.

Take “HVQLVESGGGLVQAGGSLRLSCAASGFIFRYYAMGWYRQAPGKERELVAAISWSGTPTFYADSVKGRFTISRDNAKNTVYLQMNSLKPEDTAVYYCAAETTGYDSYIQYEYWGQGTQVTVSS”: the “polyreactivity (PSR sort gate)” value is recorded as “high polyreactivity”.

On to “QVQLLESGGGLVQAGGSLSLSCAASGSTFKHYAMGWYRQAPGKERELVAAISSRGGSTHYADSVKGRFTISRDNAKNTVYLQMNSLKREDTAVYYCARDTDPQSSRSSDYDYWGQGTQVSVSS”, for which the “polyreactivity (PSR sort gate)” value is “low polyreactivity”.

Take “QVQLVESGGGLVQAGGSLRLSCAASGFIFTGYAMGWYRQAPGKERELVAAISRRGGSTYYADSVKGRFTISRDNAKNTVYLQMNSLKPEDTAVYYCAARTRTNGFDDWGQGTQVTVSS”: the “polyreactivity (PSR sort gate)” value is listed as “high polyreactivity”.

In the case of “QVQLVESGGGLVQAGGILRLSCAASGRTFGLYAMGRYRQAPGKERELVAAITRSDGGTNYADSVKGRFTISRDNAKNTVYLQMNSLKAEDTAVYYCAVDLGYVSHVSWYAYEYWGQGTQVTVSS”, the “polyreactivity (PSR sort gate)” value was “low polyreactivity”.

“QVQLVDSGGGVVQAGGSLRLSCAASGFIFSGYAMGWYRPAPGKERELVAVISRGGGSTSYADSVKGRFTISRDNAKNTVYLQMNSLKPEDTAVYYCAAVYYPLSVDNDYWGQGTQVTVSS”: the “polyreactivity (PSR sort gate)” value is given as “high polyreactivity”.

Take “QVQLVESGGGLVQAGGSLRLSCAASGRTFIEYAMAWYRQAPGKERELVAAISRNDGGSTYYADSVKGRFTISRDNAKNTVYLQMNSLKPEDTAVYYCAARRYISAHVRYGSWGQGTQVTLSS”: the “polyreactivity (PSR sort gate)” value is “high polyreactivity”.

On to “QVQLVESGGGLVQAGGSLRLSCAASGSTSPGYAMGWYRQAPGKERELVAAITFRGTRTYYADSVKGRFTISRDNAKNTVYLQMNSLKPEDTAVFYCNVVGYGPNRGRVDYWGQGTQVTVSS”, for which the “polyreactivity (PSR sort gate)” value is “high polyreactivity”.

In the case of “QVQLVESGGGLVQAGGSLRLSCAASGSIFGTYAMGGYRQAPGKERELVAAITGNGGRTYYADSVKGRFTISRDNAKNTVYLQMNSLKPEDTAVYYCAKATSRRGFYYWGQGTQVTVSS”, the “polyreactivity (PSR sort gate)” value is on record as “high polyreactivity”.

In the case of “QVQLVESGGGLVQAGGSLRLSCAASGGTFRYNAMGWYRQAPGKERELVAAITSVGITNYADSVKGRFTISRDNAKNTVYLQMNSLKPEDTAVYYCAKRYYRYGARSWYYPYDYWGQGTQVTVSS”, the “polyreactivity (PSR sort gate)” value is reported as “high polyreactivity”.

Consider “QVQLVESGGGLVQAGGSLRLSCAASGLIFGRNAMGWYRQAPGKERELVAAINNSGGTTYYADSVKGRFTISRDNAKNTVYLQMNSLKPEDTAVYYCNAYFRNWRYSPGGYWGQGTQVTVSS”, for which the “polyreactivity (PSR sort gate)” value was “high polyreactivity”.

For the sequence “KVQLVESGGGLVQAGGSLRLSRAASGFTFGSYAMGWYRQAPGKERELVAAITRRGGSTRYADSVKGRFTISRDNAKNTVYLQMNSLKPEDTAVYYCAAKHGRNYAANALYGYWGQGTQVTVSS”, the “polyreactivity (PSR sort gate)” value is recorded as “high polyreactivity”.

“QVQLVESGGGLVQAGGSLLLSCAASGRTFATNAMGWNRQAPGKERELVADISGGGSTYYADSVKGRFTISRDNAKNTVYLQMNSMKPEDTAVYYCAARDYHWFQWYDYWGQGTQVTVSS”: the “polyreactivity (PSR sort gate)” value is “low polyreactivity”.

Take “QVQLVESGAGLVHAGGSLRLCCAASGRIFNGYSMGWYRQAPGKERELVAGISYSGGSTYYADSVKGRFTISRDNAKNTVYLQMNSQKPEETAVYYCAKRPYYLGNRYRFDYWGQGTQVSVSS”: the “polyreactivity (PSR sort gate)” value is listed as “high polyreactivity”.

“QVQLVESGGGLVQAGGSLRLSCAASGLIFAQYAMGWYRQAPGKEREFVAAISYSGGNTYYADSVKGRFTISRDNAKNTVYLQMNSLKPEDTAVYYCAADYYWYHYAGWVGQYGYWGQGTQVTVSS”: the “polyreactivity (PSR sort gate)” value is recorded as “low polyreactivity”.

Regarding “QVQLVESGGGLVQAGGSLRLSCAASGRILWGNTMGWYRQAPGKERELVAAISWNGGGTYYADSVKGRFTISRDNAKNTVYLQMNSLKPEDTAVYYCATRYTYSTDTGYDYWGQGTQVTVSS”, the “polyreactivity (PSR sort gate)” value was “low polyreactivity”.

For the sequence “QVKLVESGGGLVQAGGSLRLTCAASGSTFGPYAMGWYRQEPGKERELVSTITRNGGSTYYADSVKGRFTISRDNAKNTVYLQMNSLKPEDTAVYYCNAEGRWSSFTQRMDYWGQGTQVTVSS”, the “polyreactivity (PSR sort gate)” value is recorded as “low polyreactivity”.

Turning to “QVQRVESGGGLVQARGSLRLSCAASGRIFYRYAMGWNIQAPGKERELVAAISGSVGSTYADSVKGRFTISRDNAKNTVYLQMNSLKPEDTAVYYCARETYRRYGAYDYWGQGTQVSVSS”, the “polyreactivity (PSR sort gate)” value is given as “low polyreactivity”.

For “QVQLVESGGGLVQAGGSLRLSCAASGSILFTNAMGWYRQAPGKERELVAAISSGGSTYYADSVKGRFTISRDNAKNTVYLQMNSLKPEDTAVYYCAASDHYRWYVHRWEDPFYYWGQGTQVTVSS”, the “polyreactivity (PSR sort gate)” value was “low polyreactivity”.

Consider “QVQLVESGGGLVHAGGSLRLSCAASGFTFAYNAMGWYRQAPGKERELVAAIRRRGGITYYADSVKGRFTISRDNAKNTVYLQMNSLKPEDTAVYYCNAVRSYPAGYDSWGQGTQVTVSS”, for which the “polyreactivity (PSR sort gate)” value is “low polyreactivity”.

Consider “QVQLVESGGGLVQAGGSLRLSCAASGRIFVSHAMGWYRQAPGKERALVAGITWTSGSTYYADSVKGRFTISRDNAKNTVYLQMKSLKPEDTAVYYCAAEYWYGNAFDYWGLGTQVTVSS”, for which the “polyreactivity (PSR sort gate)” value is “low polyreactivity”.

“QVQLVESGGGLVQAGGSLRLSCAASGFTFPYYAMGWYRQAPGKERDLVARISSGGSTNYADSVKGRFTISRDNAKNTVYLQMNSLKPEDTAVYYCNKVRTVTTYEYWGQGTQVTVSS”: the “polyreactivity (PSR sort gate)” value was “high polyreactivity”.

As for “QVQLVESGGGLVQAGGSLRLSCAASGRIFSIYAMGWYRQAPGKERELVADITWTGGGTYYADSVKGRFTISRDNAKNTVYLQMNSLKPEDTAVYYCAADLYRKWWYDYWGQGTQVTVSS”, the “polyreactivity (PSR sort gate)” value is reported as “high polyreactivity”.

With “QVQLVESGGGLVQAGGSLRLSCAASGSIFSNNAMGWYRQAPGKERELVAAISRSGTNTYYADSVKGRFTISRDNAKNTVYLQMNSLKPEDTAVEYCAARGVYVKYYYWGQGTQVTVSS”, the “polyreactivity (PSR sort gate)” value is reported as “high polyreactivity”.

For “QVQLVESGGGLVQAGGSLRLSCAASGSTFWYYTMGWYRQAPGKERELVAAISKSGTNTYYADSVKGRFTISRDQAKNTVYLQMNSLKPEDTAVDYCNALTKTGTPPDYDYWGQGTQVTVSS”, the “polyreactivity (PSR sort gate)” value is recorded as “high polyreactivity”.

For “QVQLVESGGGLVQAGGSLRLSCAASGRIFRYYVMGWYRQAPGKERELVAAISRSGGTTYYADSVKGRFTISRDNAKNTVYLQMNSLKPEDTAVYYCAAVYGRDPGDYWGQGTQVTVSS”, the “polyreactivity (PSR sort gate)” value is listed as “high polyreactivity”.

“QVQLVESGGGLVQAGGRLRLSGAASGSIYFRNVMGWYRQAPGKERELVAAITWSGGGTYYPDSVKGRFTISRDNAKNTVYLQMNSLQPEDTAFYYCAARSPTIRYGAGYWGQVTQVTVSS”: the “polyreactivity (PSR sort gate)” value is “low polyreactivity”.

For “QVQLVESGGGLVQAGGSLRISCAASGSIFGDNAMGWYRHAPGKERELVAAITFSGGSTHYADSVKGRFTISRDTAKNTVYLQMNSLKPEDTAVYYCAKRWRYSKHVNYYYWGQGTQVTVSS”, the “polyreactivity (PSR sort gate)” value is given as “high polyreactivity”.

With “QVQLVESGGGIVQAGGSLRLSCAASGFTYDENAMGWYRQAPGINYSGASTYYAESVKGRFTISRDNAKNTVYLQMNSLKPEDTAVYYCAAEVVAQMNYWGQGTQVTVSS”, the “polyreactivity (PSR sort gate)” value was “low polyreactivity”.

With “QDQIVETGGGLVQAGCSLRLSCAASGSIYYNSMGWYRTAHAKETELVASISTGDSTDYADSVKGRFTISRDYAKYTVYLQMNSLKPEDTAVYYCKAVASQHDEFDYWGQGTQVTVSS”, the “polyreactivity (PSR sort gate)” value is “low polyreactivity”.

Turning to “QVQLVESGGGLVQAGGSLRLSCAASGFMFSRYAMGWYRQAAGTERELVAAITSSGGRTYYADSVKGRFTISRDNAKNTVYLQMTSLKPEDTAVYYCNADLGSWYTWFDYWGQGTQVTVSS”, the “polyreactivity (PSR sort gate)” value is “high polyreactivity”.

For the sequence “QVQLVESGGGLVQAGGSLRLSCAASGRIFRGYAMGSYRQETGKETELVAAISRSGGSTYYADSVKGRFTISRDNAKNTVYLQMNILKPEDTAVYYCNTKYVRYYRRYDSWGQGTQVTVSS”, the “polyreactivity (PSR sort gate)” value is on record as “high polyreactivity”.
